Biological target: HIV-1 clade C 96ZM651 gp140 Env trimer (HIV-1 clade C isolate 96ZM651)
Test: native gel or EMSA

## HIV-1 clade C 96ZM651 gp140 Env trimer (domain or fragment)
  stoichiometry N: 3

Source: PMC6930178
